# Assay results as given in US20180222958A1 (ONCOMED PHARMACEUTICALS, published 2018).
# B1: 363F1 mFc-mLTαββ (Fc fusion)
# chain: GCKPCICTVPEVSSVFIFPPKPKDVLTITLTPKVTCVVVDISKDDPEVQFSWFVDDVEVHTAQTQPREEQFASTFRSVSELPIMHQDWLNGKEFKCRVNSAAFPAPIEKTISKTKGRPKAPQVYTIPPPKEQMAKDKVSLTCMITDFFPEDITVEWQWNGQPAENYKNTQPIMDTDGSYFVYSKLNVQKSNWEAGNTFTCSVLHEGLHNHHTEKSLSHSPGKKPAAHLVGYPSKQNSLLWRASTDRAFLRHGFSLSNNSLLIPTSGLYFVYSQVVFSGESCSPRAIPTPIYLAHEVQLFSSQYPFHVPLLSAQKSVYPGLQGPWVRSMYQGAVFLLSKGDQLSTHTDGISHLHFSPSSVFFGAFALLNPELPAAHLIGAWMSGQGLSWEASQEEAFLRSGAQFSPTHGLALPQDGVYYLYCHVGYRGRTPPAGRSRARSLTLRSALYRAGGAYGRGSPELLLEGAETVTPVVDPIGYGSLWYTSVGFGGLAQLRSGERVYVNISHPDMVDYRRGKTFFGAVMVGLNPELPAAHLIGAWMSGQGLSWEASQEEAFLRSGAQFSPTHGLALPQDGVYYLYCHVGYRGRTPPAGRSRARSLTLRSALYRAGGAYGRGSPELLLEGAETVTPVVDPIGYGSLWYTSVGFGGLAQLRSGERVYVNISHPDMVDYRRGKTFFGAVMVG
# notes: also called mouse LTαββ; mouse (deglycosylated) IgG1 Fc-mouse lymphotoxin-αββ heterotrimer fusion protein
# What was measured:
# [1] = molecular target: T1, human LTβR ecd, CD4TM and GFP (human, UniProt P36941 31-227); experiment: flow cytometry on HEK 293T cells transiently transfected with human LTβR ecd-CD4TM-GFP (row 'hLTBR GFP'); '0.5 ug/ml' printed at the upper left of the figure; APC-conjugated Fc secondary
# T1 construct: extracellular domain; also called hLTβR; hLThR-GFP; not shown: CD4 transmembrane domain and GFP fused after the extracellular domain
# T1 sequence (P36941 31-227): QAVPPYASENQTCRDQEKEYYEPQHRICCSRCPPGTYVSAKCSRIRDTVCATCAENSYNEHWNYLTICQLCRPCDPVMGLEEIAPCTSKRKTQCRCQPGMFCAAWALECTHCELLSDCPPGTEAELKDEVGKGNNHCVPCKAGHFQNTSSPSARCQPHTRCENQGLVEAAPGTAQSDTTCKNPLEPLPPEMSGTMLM
# Description: (§1) To test the binding of the different c-terminal human lymphotoxin heterotrimer constructs to human and mouse LTβR, HEK 293T cells were transiently transfected with cDNA expression vectors encoding cDNA for human or mouse LTβR ecd, CD4TM and GFP. Cells were then incubated with the various human lymphotoxin constructs 363F2, 363F3, or 363F4, washed and stained with APC-conjugated Fc secondary antibody. Mouse (deglycosylated) IgG1 Fc-mouse lymphotoxin-αββ heterotrimer fusion protein 363F1 was also tested. Binding of the lymphotoxin constructs was then assessed by flow cytometry using a Canto II FACS instrument (BD Biosciences) and analyzed using FlowJo software.
# [2] = molecular target: T2, membrane-bound extracellular domain of mouse LTβR (mLTβR-CD4TM-GFP) (mouse, UniProt P50284 31-223); experiment: flow cytometry on HEK 293T cells transiently transfected with mouse LTβR ecd-CD4TM-GFP (row 'mLTBR GFP'); '0.5 ug/ml' printed at the upper left of the figure; APC-conjugated Fc secondary
# T2 construct: extracellular domain; also called mouse LTβR ecd, CD4TM and GFP; mLThR-GFP; not shown: CD4 transmembrane domain and GFP fused after the extracellular domain
# T2 sequence (P50284 31-223): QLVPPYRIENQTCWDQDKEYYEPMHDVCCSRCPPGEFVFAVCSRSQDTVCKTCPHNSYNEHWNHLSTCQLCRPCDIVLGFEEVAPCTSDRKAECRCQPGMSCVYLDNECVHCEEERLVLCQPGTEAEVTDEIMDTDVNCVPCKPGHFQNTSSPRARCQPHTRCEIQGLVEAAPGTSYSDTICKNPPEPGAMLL
# Description: as §1
binder,measurement,setting,value
B1,MFI,[1],2260
same,MFI,[2],4740
